Measurements from publication PMC6377682 (2019).

B1: PP1α^301-330 C-tail peptide [human] / human ASPP2^920-1120 [human] (parent complex)
chain 1: KNKGKYGQFSGLNPGGRPITPPRNSAKAKK
chain 2: MRVKFNPLALLLDSSLEGEFDLVQRIIYEVDDPSLPNDEGITALHNAVCAGHTEIVKFLVQFGVNVNAADSDGWTPLHCAASCNNVQVCKFLVESGAAVFAMTYSDMQTAADKCEEMEEGYTQCSQFLYGVQEKMGIMNKGVIYALWDYEPQNDDELPMKEGDCMTIIHREDEDEIEWWWARLNDKEGYVPRNLLGLYPRI
B2: human ASPP1^882-1090 [human] / human PP1β^6-327 [human] (parent complex)
chain 1: LRVRFNPLALLLDASLEGEFDLVQRIIYEVEDPSKPNDEGITPLHNAVCAGHHHIVKFLLDFGVNVNAADSDGWTPLHCAASCNSVHLCKQLVESGAAIFASTISDIETAADKCEEMEEGYIQCSQFLYGVQEKLGVMNKGVAYALWDYEAQNSDELSFHEGDALTILRRKDESETEWWWARLGDREGYVPKNLLGLYPRIKPRQRTLA
chain 2: LNVDSLITRLLEVRGCRPGKIVQMTEAEVRGLCIKSREIFLSQPILLELEAPLKICGDIHGQYTDLLRLFEYGGFPPEANYLFLGDYVDRGKQSLETICLLLAYKIKYPENFFLLRGNHECASINRIYGFYDECKRRFNIKLWKTFTDCFNCLPIAAIVDEKIFCCHGGLSPDLQSMEQIRRIMRPTDVPDTGLLCDLLWSDPDKDVQGWGENDRGVSFTFGADVVSKFLNRHDLDLICRAHQVVEDGYEFFAKRQLVTLFSAPNYCGEFDNAGGMMSVDETLMCSFQILKPSEKKAKYQYGGLNSGRPVTPPRTANPPKKR
B3: human ASPP2^920-1120 [human] / human PP1β^6-327 [human] (parent complex)
chain 1: B1 chain 2
chain 2: B2 chain 2
B4: human ASPP2^920-1120 [human] / PP1α^301-330 C-tail peptide [human] (parent complex)
chain 1: B1 chain 2
chain 2: B1 chain 1

Variants of: B1
Assay: ITC

Kd [nM]	Variant
326	chain 1 KNKGKYGQFSGLNPGGRPITPPRNSAKAKA [chain 1 K30A]
342	chain 1 KNKGKYGQFSGLNPGGRPITPPRNSAKAAK [chain 1 K29A]
520	chain 1 KNKGKYGQFSGLNPGGRPITPPRNSAAAKK [chain 1 K27A]

Variants of: B2
Assay: BLI

Kd [nM]	Variant
84.4	chain 1 LRVRFNPLALLLDASLEGEFDLVQRIIYEVEDPSKPNDEGITPLHNAVCAGHHHIVKFLLDFGVNVNAADSDGWTPLHCAASCNSVHLCKQLVESGAAIFASTISDIETAADKCEEMEEGYIQCSQFLYGVQEKLGVMNKGVAYALWDYEAQNSDELSFHEGDALTILRREDEDETEWWWARLGDREGYVPKNLLGLYPRIKPRQRTLA [chain 1 K171E, chain 1 S174D]

Variants of: B3
Assay: BLI

Kd [nM]	Variant
136	chain 1 MRVKFNPLALLLDSSLEGEFDLVQRIIYEVDDPSLPNDEGITALHNAVCAGHTEIVKFLVQFGVNVNAADSDGWTPLHCAASCNNVQVCKFLVESGAAVFAMTYSDMQTAADKCEEMEEGYTQCSQFLYGVQEKMGIMNKGVIYALWDYEPQNDDELPMKEGDCMTIIHREDESEIEWWWARLNDKEGYVPRNLLGLYPRI [chain 1 D174S]
178	chain 1 MRVKFNPLALLLDSSLEGEFDLVQRIIYEVDDPSLPNDEGITALHNAVCAGHTEIVKFLVQFGVNVNAADSDGWTPLHCAASCNNVQVCKFLVESGAAVFAMTYSDMQTAADKCEEMEEGYTQCSQFLYGVQEKMGIMNKGVIYALWDYEPQNDDELPMKEGDCMTIIHRKDESEIEWWWARLNDKEGYVPRNLLGLYPRI [chain 1 E171K, chain 1 D174S]

Variants of: B4
Assay: ITC

Kd [nM]	Variant
172	chain 1 MRVKFNPLALLLDSSLEGEFDLVQRIIYEVDDPSLPNDEGITALHNAVCAGHTEIVKFLVQFGVNVNAADSDGWTPLHCAASCNNVQVCKFLVESGAAVFAMTYSDMQTAADKCEEMEEGYTQCSQFLYGVQEKMGIMNKGVIYALWDYEPQNDDELPMKEGDCMTIIHREGPDEIEWWWARLNDKEGYVPRNLLGLYPRI [chain 1 D172G, chain 1 E173P]
